This passage reports Kd, koff and kon results from patent US20180244785A1 (MERRIMACK PHARMACEUTICALS, published 2018).

Experiment in all cases: BLI Octet RED96, antibody on anti-hIgG Fc tip
The target in assay [1] is T1, soluble FGFR4 receptor protein (human, UniProt P22455 144-369).
T1 sequence: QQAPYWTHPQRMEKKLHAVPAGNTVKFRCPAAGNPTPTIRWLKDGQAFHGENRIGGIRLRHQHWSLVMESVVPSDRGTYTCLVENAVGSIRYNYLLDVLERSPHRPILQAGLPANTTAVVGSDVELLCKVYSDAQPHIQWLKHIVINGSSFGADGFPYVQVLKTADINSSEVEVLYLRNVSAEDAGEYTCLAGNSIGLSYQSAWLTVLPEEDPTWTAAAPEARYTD
The protocol: (§1) Briefly, the Pall ForteBio Octet RED96 Bio-Layer Interferometry system was used to determine the specificity of anti-FGFR antibodies for FGFR1c, FGFR2c, FGFR3c, and FGFR4. The antibodies and soluble receptor proteins were prepared in PBS at a concentration of 300 nM. First, the candidate antibodies were immobilized on the surface of anti-human IgG Fc biosensor tips for 120 seconds. After immobilization, the biosensors were dipped in PBS solution for 60 seconds (baseline step) to assess assay drift, and determine loading level of antibodies. The baseline step was followed by an association step of 300 seconds wherein the binding interaction between the immobilized antibodies and soluble receptors was measured. Following the association step, the biosensors were dipped into PBS buffer for 600 seconds to measure the dissociation of the bound receptor proteins from the immobilized antibodies. Each binding response was measured and reported real time on a sensorgram trace. For data analysis, a simple 1:1 binding model was used which measures the rate of complex formation of one immobilized antibody and one soluble receptor protein.

Assay [2] has as its target T2, soluble FGFR3c receptor protein (human, UniProt P22607 141-372).
T2 sequence: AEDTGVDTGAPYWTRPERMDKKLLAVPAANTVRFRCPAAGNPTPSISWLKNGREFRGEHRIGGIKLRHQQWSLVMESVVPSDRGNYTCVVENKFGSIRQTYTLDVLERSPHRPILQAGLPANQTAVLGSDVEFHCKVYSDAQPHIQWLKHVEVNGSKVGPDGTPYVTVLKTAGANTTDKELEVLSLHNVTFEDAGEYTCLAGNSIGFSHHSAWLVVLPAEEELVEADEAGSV
The method, then: as §1

For assay [3], the target named is T3, soluble FGFR1c receptor protein (human, UniProt P11362 141-376).
T3 sequence: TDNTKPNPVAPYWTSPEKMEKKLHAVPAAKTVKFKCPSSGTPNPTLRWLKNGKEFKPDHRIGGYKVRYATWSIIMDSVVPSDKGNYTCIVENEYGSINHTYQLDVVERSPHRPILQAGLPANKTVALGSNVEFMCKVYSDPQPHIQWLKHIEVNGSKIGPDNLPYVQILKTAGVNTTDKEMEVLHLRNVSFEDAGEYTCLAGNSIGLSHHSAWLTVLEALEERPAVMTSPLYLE
The method, then:
as §1

Assay [4] deals with soluble FGFR2c receptor protein (human, UniProt P21802 148-377). The method, then: as §1
Sequence of soluble FGFR2c receptor protein (P21802 148-377): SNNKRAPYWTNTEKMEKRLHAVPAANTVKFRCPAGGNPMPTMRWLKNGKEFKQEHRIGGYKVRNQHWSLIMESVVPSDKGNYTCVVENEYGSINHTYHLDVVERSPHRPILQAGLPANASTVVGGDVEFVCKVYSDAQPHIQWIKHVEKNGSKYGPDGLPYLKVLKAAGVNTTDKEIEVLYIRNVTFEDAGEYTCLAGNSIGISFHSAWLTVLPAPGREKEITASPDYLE

B1: Vk2 combined with the VH of Ab15 (antibody, V domains shown)
VH: EVQLLESGGGVVQPGRSLRLSCAASGFTFSSYAMHWVRQAPGKGLEWVAVISYDGSNKYYADSVKGRFTISRDNSKNTLSLQMNSLRVEDTAIYYCVRGAGRGYTYGPDGFDIWGQGTMVTVSS
VL: DIVMTQTPLSLSVTPGQPASISCTSSRSLLHSDGKTYVYWYLQKPGQPPQLLIYELSNRFSGVPDRFSGSGSRTDFTLKISRVEAEDVGVYYCMQYIEAPLTFGGGTKVEIK
notes: captured on anti-human IgG Fc tips
Regarding B1, the Kd worked out at 7.06 nM in assay [1], 9.2 nM in assay [2], 5.74 nM in assay [3] and 10.8 nM in assay [4]. Besides, the koff in assay [1] is 0.000888 s⁻¹; in assay [2] it was 0.0011 s⁻¹; in assay [3] it was 0.000313 s⁻¹; in assay [4], 0.00228 s⁻¹. The kon in assay [1] worked out at 126000 M⁻¹ s⁻¹; in assay [2], 120000 M⁻¹ s⁻¹; in assay [3] it was 54500 M⁻¹ s⁻¹; in assay [4], 211000 M⁻¹ s⁻¹.

B2: Vk5 combined with the VH of Ab15 (antibody, V domains shown)
VH: EVQLLESGGGVVQPGRSLRLSCAASGFTFSSYAMHWVRQAPGKGLEWVAVISYDGSNKYYADSVKGRFTISRDNSKNTLSLQMNSLRVEDTAIYYCVRGAGRGYTYGPDGFDIWGQGTMVTVSS
VL: DIVMTQTPLSLSVTPGQPASISCRSSRSLLHSDGKTYVYWYLQKPGQPPQLLIYELSNRFSGVPDRFSGSGSGTDFTLKISRVEAEDVGVYYCMQYIEAPLTFGGGTKVEIK
notes: as for B1
B2: the Kd worked out at 6.05 nM in assay [1], 7 nM in assay [2], 3.98 nM in assay [3] and 8.88 nM in assay [4]. Besides, the koff amounted to 0.000752 s⁻¹ in assay [1], 0.000891 s⁻¹ in assay [2], 0.000215 s⁻¹ in assay [3] and 0.00176 s⁻¹ in assay [4]. For the same molecule, the kon came to 124000 M⁻¹ s⁻¹ in assay [1], 127000 M⁻¹ s⁻¹ in assay [2], 54100 M⁻¹ s⁻¹ in assay [3] and 198000 M⁻¹ s⁻¹ in assay [4].

B3: Vk11 combined with the VH of Ab15 (antibody, V domains shown)
VH: EVQLLESGGGVVQPGRSLRLSCAASGFTFSSYAMHWVRQAPGKGLEWVAVISYDGSNKYYADSVKGRFTISRDNSKNTLSLQMNSLRVEDTAIYYCVRGAGRGYTYGPDGFDIWGQGTMVTVSS
VL: DIVMTQSPLSLPVTPGEPASISCTSSRSLLHSDGKTYVYWYLQKPGQSPQVLIYELSNRFSGVPDRFSGSGSGTDFTLKISRVEAEDVGVYYCMQYIEAPLTFGGGTKVEIK
notes: as for B1
Turning to B3, the Kd in assay [1] was determined as 8.47 nM; in assay [2], 11.1 nM; in assay [3] it was 7.62 nM; in assay [4] it was 10.9 nM. For the same molecule, the koff in assay [1] was found to be 0.00106 s⁻¹; in assay [2], 0.0013 s⁻¹; in assay [3], 0.000327 s⁻¹; in assay [4] it was 0.00231 s⁻¹. The kon in assay [1] was 125000 M⁻¹ s⁻¹; in assay [2], 117000 M⁻¹ s⁻¹; in assay [3], 42900 M⁻¹ s⁻¹; in assay [4], 212000 M⁻¹ s⁻¹.

B4: Vh2 combined with the VL of Ab15 (antibody, V domains shown)
VH: EVQLVESGGGVVQPGRSLRLSCAASGFTFSSYAMHWVRQAPGKGLEWVAVISYDGSNKYYADSVKGRFTISRDNSKNTLYLQMNSLRAEDTAVYYCARGAGRGYTYGPDGFDIWGQGTMVTVSS
VL: DIVMTQTPLSLSVTPGQPASISCTSSRSLLHSDGKTYVYWYVQKSGQPPQLLIYELSNRFSGVPDRFSGSGSRTDFTLKISRVEAEDVGVYYCMQYIEAPLTFGGGTKVEIK
notes: as for B1
For the molecule B4, the Kd is 2.84 nM in assay [1], 6.41 nM in assay [2], 5.41 nM in assay [3] and 7.55 nM in assay [4]. Moreover, the koff in assay [1] is 0.000492 s⁻¹; in assay [2], 0.000775 s⁻¹; in assay [3], 0.000269 s⁻¹; in assay [4] it was 0.00156 s⁻¹. Moreover, the on-rate constant (kon) is 173000 M⁻¹ s⁻¹ in assay [1], 121000 M⁻¹ s⁻¹ in assay [2], 49700 M⁻¹ s⁻¹ in assay [3] and 207000 M⁻¹ s⁻¹ in assay [4].

B5: Vk1 combined with the VH of Ab15 (antibody, V domains shown)
VH: EVQLLESGGGVVQPGRSLRLSCAASGFTFSSYAMHWVRQAPGKGLEWVAVISYDGSNKYYADSVKGRFTISRDNSKNTLSLQMNSLRVEDTAIYYCVRGAGRGYTYGPDGFDIWGQGTMVTVSS
VL: DIVMTQTPLSLSVTPGQPASISCTSSRSLLHSDGKTYLYWYLQKPGQPPQLLIYELSNRFSGVPDRFSGSGSRTDFTLKISRVEAEDVGVYYCMQYIEAPLTFGGGTKVEIK
notes: as for B1
Take B5: the Kd in assay [1] is 8.75 nM; in assay [2] it was 12.3 nM; in assay [3] it was 4.7 nM; in assay [4], 12.7 nM. Besides, the koff in assay [1] amounted to 0.00105 s⁻¹; in assay [2] it was 0.00138 s⁻¹; in assay [3], 0.000243 s⁻¹; in assay [4], 0.00245 s⁻¹. Further, the kon in assay [1] is 120000 M⁻¹ s⁻¹; in assay [2], 113000 M⁻¹ s⁻¹; in assay [3], 51700 M⁻¹ s⁻¹; in assay [4] it was 193000 M⁻¹ s⁻¹.

B6: Vk7 combined with the VH of Ab15 (antibody, V domains shown)
VH: EVQLLESGGGVVQPGRSLRLSCAASGFTFSSYAMHWVRQAPGKGLEWVAVISYDGSNKYYADSVKGRFTISRDNSKNTLSLQMNSLRVEDTAIYYCVRGAGRGYTYGPDGFDIWGQGTMVTVSS
VL: DIVMTQSPLSLPVTPGEPASISCKSSQSLLHSDGKTYLYWYLQKPGQPPQLLIYELSNRFSGVPDRFSGSGSGTDFTLKISRVEAEDVGVYYCMQYIEAPLTFGGGTKVEIK
notes: as for B1
As for B6, the Kd was determined as 8.33 nM in assay [1], 8.7 nM in assay [2], 5.84 nM in assay [3] and 13.1 nM in assay [4]. For the same molecule, the koff is 0.00101 s⁻¹ in assay [1], 0.00104 s⁻¹ in assay [2], 0.000336 s⁻¹ in assay [3] and 0.00274 s⁻¹ in assay [4]. Moreover, the kon is 121000 M⁻¹ s⁻¹ in assay [1], 120000 M⁻¹ s⁻¹ in assay [2], 57600 M⁻¹ s⁻¹ in assay [3] and 210000 M⁻¹ s⁻¹ in assay [4].

B7: Vk3 combined with the VH of Ab15 (antibody, V domains shown)
VH: EVQLLESGGGVVQPGRSLRLSCAASGFTFSSYAMHWVRQAPGKGLEWVAVISYDGSNKYYADSVKGRFTISRDNSKNTLSLQMNSLRVEDTAIYYCVRGAGRGYTYGPDGFDIWGQGTMVTVSS
VL: DIVMTQTPLSLSVTPGQPASISCTSSRSLLHSDGKTYVYWYLQKSGQPPQLLIYELSNRFSGVPDRFSGSGSRTDFTLKISRVEAEDVGVYYCMQYIEAPLTFGGGTKVEIK
notes: as for B1
B7: the Kd came out at 6.79 nM in assay [1], 7.97 nM in assay [2], 4.79 nM in assay [3] and 10.3 nM in assay [4]. Further, the koff in assay [1] amounted to 0.000855 s⁻¹; in assay [2], 0.00101 s⁻¹; in assay [3], 0.000262 s⁻¹; in assay [4], 0.0022 s⁻¹. For the same molecule, the kon in assay [1] worked out at 126000 M⁻¹ s⁻¹; in assay [2], 126000 M⁻¹ s⁻¹; in assay [3], 54600 M⁻¹ s⁻¹; in assay [4] it was 214000 M⁻¹ s⁻¹.

B8: Vk6 combined with the VH of Ab15 (antibody, V domains shown)
VH: EVQLLESGGGVVQPGRSLRLSCAASGFTFSSYAMHWVRQAPGKGLEWVAVISYDGSNKYYADSVKGRFTISRDNSKNTLSLQMNSLRVEDTAIYYCVRGAGRGYTYGPDGFDIWGQGTMVTVSS
VL: DIVMTQTPLSLSVTPGQPASISCKSSQSLLHSDGKTYLYWYLQKPGQPPQLLIYELSNRFSGVPDRFSGSGSGTDFTLKISRVEAEDVGVYYCMQYIEAPLTFGGGTKVEIK
notes: as for B1
On to B8, for which the Kd stood at 9.31 nM in assay [1], 12.9 nM in assay [2], 6.45 nM in assay [3] and 14.3 nM in assay [4]. In addition, the koff in assay [1] stood at 0.00112 s⁻¹; in assay [2], 0.00157 s⁻¹; in assay [3], 0.000344 s⁻¹; in assay [4] it was 0.00313 s⁻¹. Also, the kon in assay [1] came to 120000 M⁻¹ s⁻¹; in assay [2], 121000 M⁻¹ s⁻¹; in assay [3] it was 53400 M⁻¹ s⁻¹; in assay [4], 219000 M⁻¹ s⁻¹.

B9: Vh1 combined with the VL of Ab15 (antibody, V domains shown)
VH: EVQLVESGGGVVQPGRSLRLSCAASGFTFSSYAMHWVRQAPGKGLEWVAVISYDGSNKYYADSVKGRFTISRDNSKNTLYLQMNSLRAEDTAIYYCVRGAGRGYTYGPDGFDIWGQGTMVTVSS
VL: DIVMTQTPLSLSVTPGQPASISCTSSRSLLHSDGKTYVYWYVQKSGQPPQLLIYELSNRFSGVPDRFSGSGSRTDFTLKISRVEAEDVGVYYCMQYIEAPLTFGGGTKVEIK
notes: as for B1
With B9, the Kd turned out to be 4.01 nM in assay [1], 8.56 nM in assay [2], 7.49 nM in assay [3] and 10.9 nM in assay [4]. Also, the koff was 0.000682 s⁻¹ in assay [1], 0.001 s⁻¹ in assay [2], 0.000356 s⁻¹ in assay [3] and 0.0024 s⁻¹ in assay [4]. Further, the kon turned out to be 170000 M⁻¹ s⁻¹ in assay [1], 117000 M⁻¹ s⁻¹ in assay [2], 47500 M⁻¹ s⁻¹ in assay [3] and 221000 M⁻¹ s⁻¹ in assay [4].
